This note sets out measurements from patent publication US8003342.

Assay [1] deals with T1, rat brain farnesyl:protein transferase (rat, UniProt Q04631 2-377; Q02293 1-437). As to the kind of experiment: cell-based or functional assay.
The target in assay [2] is T1, rat brain farnesyl:protein transferase. As to the kind of experiment: cell-based or functional assay. This is another data set of the same source.

On to CIKS, for which the “Concentration for 50% Inhibition” value in assay [1] turned out to be 100 µM.

Turning to CVAM, the “fold decrease of affinity against CVIM, from the concentration required for 50% inhibition” value in assay [2] turned out to be 30 fold.
